Data taken from patent US20260167714A1 (COHERUS BIOSCIENCES, published 2026).

Key:
[1] = molecular target: T1, recombinant human ILT4 (LILRB2) (human, UniProt Q8N423 22-460); test: SPR, Biacore T200, mAb captured on anti-Fc, ILT4 injected, medium resolution, 25 C
T1 construct: Bought protein (Acro Biosystems or R&D Systems); also called ILTR4
Experimental: (§1) Label-free SPR analysis on a Biacore T200 instrument was utilized to measure antibody affinity to ILT4. CM4 sensor chips from Cytiva Inc. were utilized for all medium resolution analyses. Either anti-mouse Fc specific or anti-human Fc specific capture surfaces were prepared using standard amine coupling chemistry. Mouse, Chimera or Humanized mAbs were captured to their respective surfaces and ILT4 was injected across the surfaces from 101 nM to 0.79 nM in a 2-fold serial dilution series at a flow rate of 100 μL/min. The association phase was followed for 90 sec. while the dissociation phase was followed for 1200 sec. due to the medium resolution analysis implemented here. The sensorgrams were double-referenced and fit globally to a 1:1 interaction model with a term included for mass transport, and the equilibrium dissociation constant was calculated as KD=koff/kₒₙ. […] All kinetic experiments were performed at 25° C. in a buffer consisting of Hepes-buffered saline, pH 7.4, with 0.05% polysorbate 20 (HBS-P+) and 100 μg/ml Bovine Serum Albumin (BSA).

[2] = molecular target: T1, recombinant human ILT4 (LILRB2); test: SPR, Biacore T200, medium resolution; koff held at its limit of 4.27e-5 s^-1
Experimental: as §1

[3] = molecular target: T2, human ILT4 expressed on cells (human, UniProt Q8N423 22-597); test: flow cytometry, blockade of PE-HLA-G tetramer (5 µg/ml) binding to CHO-S/ILT4 cells, experiment 2
T2 construct: whole, on cells; also called CHO-S/ILT4 cells; ILT4-CHO cells
T2 sequence (Q8N423 22-597): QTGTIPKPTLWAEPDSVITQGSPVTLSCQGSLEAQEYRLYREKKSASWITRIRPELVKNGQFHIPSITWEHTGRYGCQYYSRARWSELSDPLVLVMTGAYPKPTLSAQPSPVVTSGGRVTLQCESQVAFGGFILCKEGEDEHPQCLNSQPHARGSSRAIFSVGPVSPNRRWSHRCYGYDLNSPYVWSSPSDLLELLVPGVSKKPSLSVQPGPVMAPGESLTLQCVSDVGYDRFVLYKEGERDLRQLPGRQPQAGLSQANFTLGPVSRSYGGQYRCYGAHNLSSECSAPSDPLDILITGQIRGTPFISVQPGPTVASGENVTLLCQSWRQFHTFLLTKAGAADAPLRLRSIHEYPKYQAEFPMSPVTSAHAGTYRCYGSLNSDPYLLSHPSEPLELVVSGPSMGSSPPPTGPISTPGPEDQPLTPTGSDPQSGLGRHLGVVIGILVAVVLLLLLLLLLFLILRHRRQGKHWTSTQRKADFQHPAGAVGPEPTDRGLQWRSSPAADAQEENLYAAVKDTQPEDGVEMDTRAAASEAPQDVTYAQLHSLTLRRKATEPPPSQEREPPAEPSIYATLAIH
Experimental: (§2) In the second blocking experiment, the primary antibody dilutions were made by diluting antibody to 15 μg/ml in FACS buffer. Three independent sets of eleven 2.5-fold serial dilutions were then made in FACS buffer from 15 μg/ml to 0.002 μg/ml. Each dilution set was handled independently, and 50 μl from each was added to cells in duplicate. Control wells received FACS buffer with no antibody. Wells were mixed and incubated for 30 minutes at 4 degrees C. Cells were washed twice in FACS buffer.
(§3) In both blocking experiments, phycoerythrin (PE)-conjugated HLA-G tetramer was diluted in FACS buffer to 5 μg/ml and 100 μl per well was added to cells. Cells were incubated at 4 degrees C. for 30 minutes, washed twice in FACS buffer, and resuspended in 250 μl FACS buffer with 0.1 μg/ml propidium iodide.
(§4) Cells were acquired on an Attune flow cytometer, with 5000 propidium iodide-negative cells collected per sample, and MFI was recorded. Relative blocking activity was calculated with the following formula: 100−(Sample MFI−Background MFI)/(Top MFI−Background MFI)*100. Prism software (Graphpad) was used to plot MFI and relative blocking activity for each sample. The blocking potency for each antibody, represented as IC₅₀, was calculated with Prism software.

[4] = molecular target: T2, human ILT4 expressed on cells; test: cell-based or functional assay
[5] = molecular target: T2, human ILT4 expressed on cells; test: flow cytometry blocking assay: ILT4-expressing CHO cells preincubated with antibody, then PE-HLA-G; HLA-G binding MFI falls from about 105000 (no antibody) to near 0
Experimental: as §2, §3, §4

T1 sequence (Q8N423 other isoform, or with tags, fused parts or gaps limits assumed): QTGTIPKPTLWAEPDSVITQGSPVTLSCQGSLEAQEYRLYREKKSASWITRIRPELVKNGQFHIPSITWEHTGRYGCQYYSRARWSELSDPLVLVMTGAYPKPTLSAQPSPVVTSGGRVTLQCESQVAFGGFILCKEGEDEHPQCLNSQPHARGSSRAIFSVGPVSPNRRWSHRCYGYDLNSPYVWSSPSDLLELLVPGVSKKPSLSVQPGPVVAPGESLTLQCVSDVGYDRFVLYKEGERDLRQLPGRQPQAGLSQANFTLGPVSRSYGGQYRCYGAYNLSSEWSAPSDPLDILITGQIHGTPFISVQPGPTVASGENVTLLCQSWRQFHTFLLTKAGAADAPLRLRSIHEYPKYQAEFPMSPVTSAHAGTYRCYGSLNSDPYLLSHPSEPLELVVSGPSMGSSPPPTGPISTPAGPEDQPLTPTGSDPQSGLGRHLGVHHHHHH

Kd [1] | koff [1] | kon [1] | Kd [2] | koff [2] | IC50 [3] | IL-6 secretion by LPS-stimulated M2 macrophages (MSD), fold over control [4] | IC50 [5] | Binder
0.223 nM | 0.000109 s⁻¹ | 489000 M⁻¹ s⁻¹ |  |  |  |  |  | Chimeric 45 (antibody, V domains shown, Chimeric form of L45S4, captured on anti-human Fc) VH: EVQLQQSGPELVKPGASVKISCKASGYTFTDYYMNWVKQSHGKSLEWIGDINPNNGGTSYNQKFKGKATLTVDKSSSTAYMELRSLTSEDSAVYYCARGGAELTGTYWYFDVWGTGTTVTVSS VL: DIQMTQSPASLSISVGETVTITCRASENIYSNLAWYQQKQGKSPQVLVYGATNLADGVPSRFSGSGSGTQYSLKIKSLQSEDFGSYYCQHFWDSPFTFGSGTKLEIK
 |  | 373000 M⁻¹ s⁻¹ | ≤ 0.114 nM | ≤ 4.27e-05 s⁻¹ |  |  |  | Chimeric 156 (antibody, V domains shown, Chimeric form of L156S3) VH: QVQLKQSGAELVRPGASVKLSCRASGYTFTDYYMNWVKQRPGQGLEWIARIYPGVYRTHYNEKFKDKATLTAEKSSSTAYMELSSLTSEDSAVYFCARSGYYGGTYEEDAMDYWGQGTSVTVSS VL: DIQMTQSPASLSVSVGETVTITCRASENIYSNLAWYQQKQGKSPQLLVYAATSLADGVPSRFRGSGSGTQYSLKISSLQSEDFGNYYCQNFWDTPYTFGGGTKLEIK
 |  | 431000 M⁻¹ s⁻¹ | ≤ 0.099 nM | ≤ 4.27e-05 s⁻¹ | 0.095 µg/mL | 2 fold | 0.064 µg/mL | L180S4 (antibody, IgG1, V domains shown, also called Murine 180; mouse anti-human ILT4 antibody L180S4) VH: EVHLQQSGPELVKPGASVKISCKASGYSFIGYFMNWMKQSHGKSLEWIGRINPYNGDIFYNQKFKGKATLTVDKSSTTAHMDLLSLTSEDFAVYYCARGITVAAGSFDVWGTGTTVTVSS VL: DIVLTQSPASLAVSLGQRATISCRASESVDNYGNTFMHWYQQKPGQPPKLLIYRASNLESGIPARFSGSGSKTDFTLTINPVEADDVATYYCQQSSDHPLTFGAGTKLELS
 |  | 874000 M⁻¹ s⁻¹ | ≤ 0.049 nM | ≤ 4.27e-05 s⁻¹ |  |  |  | Chimeric 180 (antibody, V domains shown, Chimeric form of L180S4) VH: EVHLQQSGPELVKPGASVKISCKASGYSFIGYFMNWMKQSHGKSLEWIGRINPYNGDIFYNQKFKGKATLTVDKSSTTAHMDLLSLTSEDFAVYYCARGITVAAGSFDVWGTGTTVTVSS VL: DIVLTQSPASLAVSLGQRATISCRASESVDNYGNTFMHWYQQKPGQPPKLLIYRASNLESGIPARFSGSGSKTDFTLTINPVEADDVATYYCQQSSDHPLTFGAGTKLELS
 |  | 387000 M⁻¹ s⁻¹ | ≤ 0.111 nM | ≤ 4.27e-05 s⁻¹ | 0.103 µg/mL | 2 fold | 0.076 µg/mL | L77S2 (antibody, IgG1, V domains shown, also called Murine 77; mouse anti-human ILT4 antibody L77S2) VH: DVQLQQSGPELVKPGNSVKISCKAAGYSFTGYSVNWVKERHGKSLEWIGRINPYNGDIFNNQKFKGKATLTVDKSSSTAHMELRSLTSEDSAVYYCARGTTVGGAWFAYWGQGTLVTVSA VL: VIVLTQSPASLAVSLGQRAAISCRASESVDSYGYSFLHWYQQKPGQPPKLLIYLASNLESGIPARFSGSGSGTDFTLTINPVEADDVATYYCQQSNEDLMYTFGGGTKLEIK
 |  | 728000 M⁻¹ s⁻¹ | ≤ 0.059 nM | ≤ 4.27e-05 s⁻¹ |  |  |  | Chimeric 77 (antibody, V domains shown, Chimeric form of L77S2) VH: DVQLQQSGPELVKPGNSVKISCKAAGYSFTGYSVNWVKERHGKSLEWIGRINPYNGDIFNNQKFKGKATLTVDKSSSTAHMELRSLTSEDSAVYYCARGTTVGGAWFAYWGQGTLVTVSA VL: VIVLTQSPASLAVSLGQRAAISCRASESVDSYGYSFLHWYQQKPGQPPKLLIYLASNLESGIPARFSGSGSGTDFTLTINPVEADDVATYYCQQSNEDLMYTFGGGTKLEIK
